In patent publication US20020173629A1:

What was measured:
[1] = biological target: human EGF-r expressed on the surface of human carcinoma cells (A431, SW948) (human) (UniProt P00533); experiment: inhibition of [125I]EGF binding to SW948 cells
[2] = biological target: human EGF-r expressed on the surface of human carcinoma cells (A431, SW948) (human) (UniProt P00533); experiment: inhibition of [125I]EGF (0.1 nM) binding to A431 cells
[3] = biological target: Soluble EGF-r purified from A431 cell membranes (Sigma, E-3641) (human) (UniProt P00533); experiment: BIAcore, solid phase, antigen immobilised at 228 RU
[4] = biological target: human EGF-r expressed on the surface of human carcinoma cells (A431, SW948) (human) (UniProt P00533); experiment: cell-based or functional assay

| IC50 [1] [nM] | IC50 [2] [nM] | Kd [3] [nM] | IC50 of inhibition of A431 cell proliferation [4] [nM] | inhibition of EGF-induced tyrosine phosphorylation of EGFr in A431 cells [4] [nM] | inhibition of SW948 cell growth in vitro [4] [%] | Substance |
| --- | --- | --- | --- | --- | --- | --- |
| 0.9 | 3 | 0.057 | 0.125 | 133 | 100 | E7.6.3 antibody (secreted by the hybridoma E7.6.3) |
|  | 15.2 |  | 0.66 |  |  | murine monoclonal antibody 528 |
